Key:
MM cells = assay: FACS analysis of BI-505 epitope expression on patients' plasma cells; type: binding, human; set-up: key to BI-505 epitope expression Intensity: BI-505 negative cells (−) are B-cells from patient number 8; (+), (++) and (+++) corresponding to patient number 8, 7 and 10; (+), (++) and (+++) corresponding to patient number 8, 7 and 10; (+), (++) and (+++) corresponding to patient number 8, 7 and 10; conditions: for BI-505 epitope expression Intensity: FACS on MM cells
Description: (FIG. 16A) Analysis of myeloma cells in bone marrow from multiple myeloma patients by flow cytometry. Myeloma cells were gated based on expression of CD138, CD38, CD56 and CD45 according to international guidelines (Rawstron et al., 2008). Furthermore, intracellular staining was used to confirm monoclonal expression by K and A staining. B1-505 epitope expression was categorized as shown in the histogram (right position) with (+), (++) and (+++) corresponding to patient number 8, 7 and 10. BI-505 negative cells (−) are B-cells from patient number 8.
It was next evaluated the expression of the BI-505 epitope on bone marrow cells in patients with MM and related diseases (plasmacytoma, plasma cell leukemia, and light chain amyloidosis) by flow cytometry (FIG. 15 and Table 4). Myeloma cells were identified using fluorescent antibodies against surface antigens CD38, CD138, CD45 and CD56 (FIG. 16A) according to European Myeloma Network guidelines on multiparametric flow cytometry in MM (Rawstron et al., 2008) and confirming monoclonal MM cells with intracellular staining of λ and κ light chains. All MM patients expressed the BI-505 epitope on most (97±4%, mean±SD, patient n=22) myeloma cells (FIG. 15 and Table 4). The BI-505 epitope was generally very highly expressed on these cells, with median expression level 10 times higher than on normal B cells from the same patients. Similar results were obtained with a commercially available anti-ICAM-1 antibody (data not shown). Furthermore, the BI-505 epitope was highly expressed on myeloma cells in a patient in relapse who had received several different lines of therapy (FIG. 16B). Thus, ICAM-1 and the BI-505 epitope are strongly expressed on the surface of MM plasma cells.
Plasma cell surface expression of ICAM-1 and the BI-505 epitope was analyzed by FACS. Bone marrow aspirates were obtained from 29 patients diagnosed with MM or related diseases at the Department of Hematology, Skånes University Hospital, Lund. All human samples were collected using protocols approved by the Ethics Committee of Skåne University Hospital, and informed consent was obtained from all patients.
Bone marrow aspirates from 29 patients diagnosed with MM or related diseases (plasmocytoma, plasma cell leukemia, or amyloid light chain amyloidosis) at the Department of Hematology, Skånes University Hospital, Lund were analyzed by flow cytometry using 4 cocktails of antibodies, each suitable for recognizing plasma cells (Figure S3) after informed consent and with the approval of the local ethical committee. Clinical data were obtained from patients' charts.

MDA MB 435 = assay: IgG binding to tumour cell line, flow cytometry MFI; set-up: species or system human; conditions: MDA MB 435, Melanoma
Description: The antigen distribution of human antibody targeted antigens, mainly for B11, on different carcinoma cell lines was investigated. Cells (MCF-7 and MDA MB 435S breast carcinoma, JAR and JEG-3 chorio-carcinoma, A549 lung carcinoma, TCC-SUP urinary bladder carcinoma, MDA MB 435 melanoma, HPAC, PANC-1 and BxPC-3 pancreatic carcinoma, PC-3 and DU145 prostate carcinoma, LS174 T, CaCo2, and Lovo colorectal carcinoma, and THP-1 monocytic leukaemia cells), were washed in PBS, and resuspended at 4×10^6 cells/ml in Complete Medium (200,000 cells/50 […] sample). […] Cells were incubated with either of the antibodies for 1 hour on ice, washed by resuspension in PBS/BSA 0.5%, centrifuged at 1200 rpm for 5 min, and complete aspiration of the supernatants was undertaken. Cells were incubated with PE-conjugated Goat F(ab′)2 anti-Human IgG (Caltag Laboratories, Cat no: H10104), diluted 1/50 in PBS/BSA 0.5%, for 30 min, on ice. Following resuspension of in 300 μl PBS/BSA 0.5%, cells were analysed for IgG binding using a FACScan instrument.

[1] = system: mouse, rat, rabbit, and cynomolgus monkey ICAM-1; assay: BI-505 cross-reactivity to ICAM-1 of animal species used for toxicological studies; type: binding; conditions: animals commonly used for toxicological evaluation
Description: The cross reactivity of BI-505 to mouse, rat, rabbit, and cynomolgus monkey ICAM-1 was investigated using several methods (i.e. immunohistochemistry, flow cytometry, and enzyme-linked immunosorbent assay [ELISA]) and sources of target protein (tissue, ICAM-1 transfected cells, endogenous ICAM-1 expressing cells, and recombinant ICAM-1 protein). Polyclonal anti-mouse ICAM-1, anti-rat ICAM-1, anti-rabbit ICAM-1, and anti-cynomolgus ICAM-1 antibodies were used as positive controls in experiments. Isotype control human IgG1 was used as negative control for BI-505 and species matched polyclonal IgG lacking specificity for ICAM-1 served as negative controls for ICAM-1 specific polyclonal antibodies.

B1: B11: fully human IgG1 antibody specific for ICAM-1; VH and VL sequences of FIG. 10 (SEQ ID NOs. 6 and 8) (antibody, listed as Homo sapiens, V domains shown)
VH: EVQLLESGGGLVQPGGSLRLSCAASGFTFSNAWMSWVRQAPGKGLEWVAFIWYDGSNKYYADSVKGRFTISRDNSKNTLYLQMNSLRAEDTAVYYCARYSGWYFDYWGQGTLVTVSS
VL: QSVLTQPPSASGTPGQRVTISCTGSSSNIGAGYDVHWYQQLPGTAPKLLIYDNNNRPSGVPDRFSGSKSGTSASLAISGLRSEDEADYYCQSYDSSLSAWLFGGGTKLTVLG
Question: Which “myeloma cells expressing the BI-505 epitope” value (MM cells; all MM patients, mean±SD, patient n=22) does the source give for B1 here?
Answer: 97±4%

Question: What about the “BI-505 epitope expression Positive cells (%)” value (MM cells; patient 1, MM) of the same molecule?
Answer: 98%

Question: And the “BI-505 epitope expression Intensity” value (MM cells; patient 1, MM)?
Answer: +++

Question: What about the “BI-505 epitope expression Positive cells (%)” value (MM cells; patient 2, MM) of the same molecule?
Answer: 97%

Question: What about the “BI-505 epitope expression Intensity” value (MM cells; patient 2, MM) of the same molecule?
Answer: +++

Question: And the “BI-505 epitope expression Positive cells (%)” value (MM cells; patient 3, MM)?
Answer: 100%

Question: What about the “BI-505 epitope expression Positive cells (%)” value (MM cells; patient 4, nsMM) of the same molecule?
Answer: 100%

Question: And the “BI-505 epitope expression Intensity” value (MM cells; patient 4, nsMM)?
Answer: +++

Question: And the “BI-505 epitope expression Positive cells (%)” value (MM cells; patient 5, MM)?
Answer: 100%

Question: And the “BI-505 epitope expression Intensity” value (MM cells; patient 5, MM)?
Answer: ++

Question: And the “BI-505 epitope expression Positive cells (%)” value (MM cells; patient 6, MM)?
Answer: 98%

Question: What about the “BI-505 epitope expression Intensity” value (MM cells; patient 6, MM) of the same molecule?
Answer: +++

Question: And the “BI-505 epitope expression Positive cells (%)” value (MM cells; patient 7, MM)?
Answer: 98%

Question: What about the “BI-505 epitope expression Intensity” value (MM cells; patient 7, MM) of the same molecule?
Answer: +++

Question: And the “BI-505 epitope expression Positive cells (%)” value (MM cells; patient 8, MM)?
Answer: 100%

Question: What about the “BI-505 epitope expression Intensity” value (MM cells; patient 8, MM) of the same molecule?
Answer: +++

Question: What about the “BI-505 epitope expression Positive cells (%)” value (MM cells; patient 9, MM) of the same molecule?
Answer: 100%

Question: What about the “BI-505 epitope expression Intensity” value (MM cells; patient 9, MM) of the same molecule?
Answer: ++

Question: What about the “BI-505 epitope expression Positive cells (%)” value (MM cells; patient 10, MM) of the same molecule?
Answer: 95%

Question: What about the “BI-505 epitope expression Intensity” value (MM cells; patient 10, MM) of the same molecule?
Answer: +

Question: And the “BI-505 epitope expression Positive cells (%)” value (MM cells; patient 11, MM)?
Answer: 100%

Question: What about the “BI-505 epitope expression Intensity” value (MM cells; patient 11, MM) of the same molecule?
Answer: +++

Question: And the “BI-505 epitope expression Positive cells (%)” value (MM cells; patient 12, nsMM)?
Answer: 95%

Question: And the “BI-505 epitope expression Positive cells (%)” value (MM cells; patient 13, MM)?
Answer: 100%

Question: What about the “BI-505 epitope expression Intensity” value (MM cells; patient 13, MM) of the same molecule?
Answer: +++

Question: What about the “BI-505 epitope expression Positive cells (%)” value (MM cells; patient 14, MM) of the same molecule?
Answer: 100%

Question: What about the “BI-505 epitope expression Intensity” value (MM cells; patient 14, MM) of the same molecule?
Answer: +++

Question: What about the “BI-505 epitope expression Positive cells (%)” value (MM cells; patient 15, MM) of the same molecule?
Answer: 100%

Question: And the “BI-505 epitope expression Intensity” value (MM cells; patient 15, MM)?
Answer: +++

Question: What about the “BI-505 epitope expression Positive cells (%)” value (MM cells; patient 16, MM) of the same molecule?
Answer: 88%

Question: And the “BI-505 epitope expression Intensity” value (MM cells; patient 16, MM)?
Answer: ++

Question: And the “BI-505 epitope expression Positive cells (%)” value (MM cells; patient 17, MM)?
Answer: 100%

Question: And the “BI-505 epitope expression Intensity” value (MM cells; patient 17, MM)?
Answer: +++

Question: What about the “BI-505 epitope expression Positive cells (%)” value (MM cells; patient 18, MM) of the same molecule?
Answer: 100%

Question: And the “BI-505 epitope expression Intensity” value (MM cells; patient 18, MM)?
Answer: +++

Question: And the “BI-505 epitope expression Positive cells (%)” value (MM cells; patient 19:1, MM)?
Answer: 93%

Question: What about the “BI-505 epitope expression Intensity” value (MM cells; patient 19:1, MM) of the same molecule?
Answer: +++

Question: And the “BI-505 epitope expression Positive cells (%)” value (MM cells; patient 19:2, MM)?
Answer: 95%

Question: What about the “BI-505 epitope expression Intensity” value (MM cells; patient 19:2, MM) of the same molecule?
Answer: +++

Question: What about the “BI-505 epitope expression Positive cells (%)” value (MM cells; patient 19:3, MM) of the same molecule?
Answer: 91%

Question: And the “BI-505 epitope expression Intensity” value (MM cells; patient 19:3, MM)?
Answer: +++

Question: And the “BI-505 epitope expression Positive cells (%)” value (MM cells; patient 20, MM)?
Answer: 100%

Question: What about the “BI-505 epitope expression Intensity” value (MM cells; patient 20, MM) of the same molecule?
Answer: +++

Question: And the “BI-505 epitope expression Positive cells (%)” value (MM cells; patient 21, MM)?
Answer: 93%

Question: And the “BI-505 epitope expression Intensity” value (MM cells; patient 21, MM)?
Answer: +++

Question: And the “BI-505 epitope expression Positive cells (%)” value (MM cells; patient 22, MM)?
Answer: 86%

Question: What about the “BI-505 epitope expression Intensity” value (MM cells; patient 22, MM) of the same molecule?
Answer: +++

Question: And the “BI-505 epitope expression Positive cells (%)” value (MM cells; patient 23, AL)?
Answer: 97%

Question: And the “BI-505 epitope expression Intensity” value (MM cells; patient 23, AL)?
Answer: ++

Question: And the “BI-505 epitope expression Positive cells (%)” value (MM cells; patient 24, AL)?
Answer: 100%

Question: What about the “BI-505 epitope expression Intensity” value (MM cells; patient 24, AL) of the same molecule?
Answer: +++

Question: What about the “BI-505 epitope expression Positive cells (%)” value (MM cells; patient 25, LCDD/MM) of the same molecule?
Answer: 98%

Question: What about the “BI-505 epitope expression Intensity” value (MM cells; patient 25, LCDD/MM) of the same molecule?
Answer: +++

Question: And the “BI-505 epitope expression Positive cells (%)” value (MM cells; patient 26, PCL)?
Answer: 76%

Question: And the “BI-505 epitope expression Intensity” value (MM cells; patient 26, PCL)?
Answer: +++

Question: And the “BI-505 epitope expression Positive cells (%)” value (MM cells; patient 27, PCL)?
Answer: 77%

Question: And the “BI-505 epitope expression Intensity” value (MM cells; patient 27, PCL)?
Answer: +

Question: What about the “BI-505 epitope expression Positive cells (%)” value (MM cells; patient 28, PC) of the same molecule?
Answer: 93%

Question: What about the “BI-505 epitope expression Intensity” value (MM cells; patient 28, PC) of the same molecule?
Answer: +++

Question: And the “BI-505 epitope expression Positive cells (%)” value (MM cells; patient 29, PC)?
Answer: 100%

Question: And the “BI-505 epitope expression Intensity” value (MM cells; patient 29, PC)?
Answer: +++

Question: What about the “increase of mean BI-505 expression in myeloma cells after first relapse” value (MM cells; patient, bone marrow number 2 versus diagnosis) of the same molecule?
Answer: two-fold

Question: And the MFI (MDA MB 435)?
Answer: 4000

Question: What about the “cross-reactivity with animal ICAM-1” value [1] of the same molecule?
Answer: does not, however, cross-react
